The results in this text go back to the supplement of paper PMC10567573.

± gives the standard deviation.

The nature of the data set: protein stability index of a GFP-peptide fusion (GPS, HEK-293T) (PSI 1-6); higher = more stable.
Where [1] appears, read: treatment: DMSO, c terminus: a fixed tail appended.
[2] abbreviates: treatment: MLN4924 1 uM, 8 h, c terminus: a fixed tail appended.
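Further: 24-mer peptide tiles fused after GFP, lentivirally expressed, FACS-sorted into six equal bins by GFP/DsRed ratio, decoded by Illumina sequencing, PSI is the read-weighted mean bin number.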

Regarding HVPELEMLGRLGYLNHVRAASPQD [MNAT1], the protein stability index is, setting by setting: under setting [1], 3.44 ± 0.2; under setting [2], 3.45 ± 0.45.

IAAPHAGANVKPRNSTPPSLARNP [ZC2HC1A] yielded a protein stability index under setting [1] of 4.35 ± 0.12 and a protein stability index under setting [2] of 4.48 ± 0.25.

As to IDICHDHFGWYLGWGDCVWLPYLY [DHCR7], the protein stability index turned out to be 2.55 ± 0.12 under setting [1] and 3.3 ± 0.27 under setting [2].

Turning to IDLSAWCYYCQAYVHHQALLDVKN [HDAC6], the protein stability index was 2.73 ± 0.38 under setting [1] and 3.08 ± 1.2 under setting [2].

As for IGCKKPVSASGKEMDWAQMACHRC [SMG5], the protein stability index is 3.04 ± 0.34 under setting [1] and 3.48 ± 0.28 under setting [2].

IGMHREMQVNPISKRMGPMTVVRM [RHOBTB1] had a protein stability index under setting [1] of 2.39 ± 0.44 and a protein stability index under setting [2] of 2.39 ± 0.32.

For IIANTMAFQNDVYEWARDHRAHHK [SCD], the protein stability index by setting is: under setting [1], 2.52 ± 0.17; under setting [2], 2.86 ± 0.27.

Consider IKPAPARAPACSPEAAAAQLRATA [FCHO1], for which the protein stability index reads like this: under setting [1], 3.53 ± 0.17; under setting [2], 3.98 ± 0.13.

In the case of IKSHSSLPPNNSYADFERFSKVLE [DAPK3], the protein stability index came to 2.81 ± 0.22 under setting [1] and 2.96 ± 0.39 under setting [2].

Regarding ILAAACESETRKAAKRMRLEIYQS [NOL4L], the protein stability index runs as follows: under setting [1], 2.47 ± 0.24; under setting [2], 2.54 ± 0.05.

As to ILAHLTGTEFMQDPDEEHLKKSSQ [PDLIM7], the protein stability index runs as follows: under setting [1], 3.9 ± 0.13; under setting [2], 4.16 ± 0.25.

For ILDLLVLEQFLSILPKELQGWVRE [ZSCAN9], the protein stability index by setting is: under setting [1], 2.38 ± 0.45; under setting [2], 2.19 ± 0.39.

For the sequence ILDQTTSEDAVGGATLGQTTSEEA [HDAC6], the protein stability index under setting [1] came out at 5.42 ± 0.065 and the protein stability index under setting [2] was 5.5 ± 0.15.

For the sequence ILLDPILMFFIMAAMLSMVKYNSC [POMT2], the protein stability index turned out to be 3.27 ± 0.18 under setting [1] and 3.2 ± 0.05 under setting [2].

Sequence ILTIICYLGLPRLEFYRYYQQLKL [SLC29A1] returned a protein stability index under setting [1] of 3.31 ± 0.33 and a protein stability index under setting [2] of 3.08 ± 0.56.

As to IMALVAAILLLVIIILIVMKYRT [VAMP4], the protein stability index reads like this: (treatment: DMSO, c terminus: native) 3.07 ± 0.33; (treatment: MLN4924 1 uM, 8 h, c terminus: native) 3.16 ± 0.07.

INRADYCPECYPDNPANRSLVLPW [TOR1AIP2]: the protein stability index amounted to 2.29 ± 0.33 under setting [1] and 2.76 ± 0.55 under setting [2].

IPMHIDHDRNMDWVSTQLQATCNV [FADS1] gave a protein stability index under setting [1] of 3 ± 0.28 and a protein stability index under setting [2] of 3.24 ± 0.27.

IPPKSVNPTCMCCQATSSTACHIQ [FAM219A] gave a protein stability index under setting [1] of 3.7 ± 0.17 and a protein stability index under setting [2] of 3.82 ± 0.26.

For the sequence IQGQNKEMLAAACQMFLGKTEAEI [FLOT1], the protein stability index is, setting by setting: under setting [1], 3.49 ± 0.15; under setting [2], 3.42 ± 0.33.

In the case of IQNAHKNSTGSGRGKKLMVLTEPI [TPRG1], the protein stability index reads like this: under setting [1], 3.89 ± 0.24; under setting [2], 3.66 ± 0.28.

Turning to IQPSSEGLGPTSEPFPSSDDSPRS [SPAG8], the protein stability index reads like this: under setting [1], 5.41 ± 0.21; under setting [2], 5.35 ± 0.15.

For IQSLTCEVDGLRGTNEALLRQLRE [PRPH], the protein stability index by setting is: under setting [1], 3.74 ± 0.4; under setting [2], 3.96 ± 0.24.

Consider IQVEDIRIRAILSTYRKRTPVMEG [LOXL2], for which the protein stability index was 2.13 ± 0.48 under setting [1] and 2.16 ± 0.35 under setting [2].

Turning to IQVLPKLSSSIIHEIDSILGNKPY [KCNAB2], the protein stability index came to 1.98 ± 0.27 under setting [1] and 2.28 ± 0.27 under setting [2].

In the case of IRVRGQRASRLQAPVLVAAPHSTF [LPCAT4], the protein stability index is, setting by setting: under setting [1], 2.6 ± 0.17; under setting [2], 2.73 ± 0.22.

In turn, ISPWNLPLYLLTWKIAPAMAAGNT [ALDH8A1] displayed a protein stability index under setting [1] of 3.06 ± 0.53 and a protein stability index under setting [2] of 3.05 ± 0.62.

ITKAFHVRKANRIKECLSKGTFSD [RHOBTB1] yielded a protein stability index under setting [1] of 2.7 ± 0.25 and a protein stability index under setting [2] of 2.81 ± 0.51.

For the sequence ITLDGGVLVHVQKWDGKSTTIKRK [FABP4], the protein stability index worked out at 2.46 ± 0.38 under setting [1] and 3.06 ± 0.1 under setting [2].

Take ITLKYPHYFPVMKKCCIPETRRRM [NLN]: the protein stability index under setting [1] worked out at 2.1 ± 0.27 and the protein stability index under setting [2] was 1.97 ± 0.37.

Regarding ITWIAGAVTKDFKLTDKHETVVSY [ACSBG2], the protein stability index came to 2.3 ± 0.25 under setting [1] and 2.03 ± 0.33 under setting [2].

ITWNRVVLLHGPPGTGKTSLCKAL [TRIP13]: the protein stability index by setting is: under setting [1], 2.32 ± 0.58; under setting [2], 2.13 ± 0.2.

For the sequence IYDLNIPAFVKFAYVAEREDELSL [NCK2], the protein stability index is, setting by setting: under setting [1], 2.25 ± 0.39; under setting [2], 2.51 ± 0.2.

As for IYLINQKWFGRKRTLSAFLCLGGL [SLC22A15], the protein stability index reads like this: under setting [1], 3.15 ± 0.26; under setting [2], 3.01 ± 0.56.

Turning to IYVVGGFDGTAHLSSVEAYNIRTD [KLHL12], under setting [1], the protein stability index was determined as 3.08 ± 0.28.

In turn, KAFLTKTMLIVHHRTHTGERPYGC [ZNF649] displayed a protein stability index under setting [1] of 2.45 ± 0.3 and a protein stability index under setting [2] of 2.03 ± 0.23.

As for KAILEQNFRDLVRDLEKQKEEVRA [TRIM29], the protein stability index was found to be 4.43 ± 0.31 under setting [1] and 4.48 ± 0.24 under setting [2].

Regarding KALAIILHLLYLLEKVECTPSQEH [FEM1A], the protein stability index by setting is: under setting [1], 1.96 ± 0.35; under setting [2], 1.99 ± 0.13.

Consider KAQALRDNSTMGYMMAKKHLEINP [HSP90AB1], for which the protein stability index under setting [1] came out at 3.39 ± 0.14 and the protein stability index under setting [2] is 3.5 ± 0.23.

As to KCDSLKEECIPEHMVRESKIMEAE [FAN1], the protein stability index runs as follows: under setting [1], 5.2 ± 0.39; under setting [2], 5 ± 0.22.

As for KCPWMEGGEMSPQVETSIEGTIPF [INTS4], the protein stability index under setting [1] was 4.08 ± 0.27 and the protein stability index under setting [2] came to 4.03 ± 0.2.

For KCVTMSSAVVQLYAADRNCMWSKK [WASL], the protein stability index runs as follows: under setting [1], 2.87 ± 0.18; under setting [2], 2.88 ± 0.29.

As for KDKEYAEIIRKQVSATKAEAEKDG [UBE2R2], the protein stability index reads like this: under setting [1], 5.39 ± 0.29; under setting [2], 5.38 ± 0.21.

As to KEISRKRRSIRYGREVELKPYIAA [PTPRD], the protein stability index stood at 3.27 ± 0.17 under setting [1] and 3.65 ± 0.44 under setting [2].

Consider KENSHQVKEELSQKFDTLYAILDE [TRIM63], for which the protein stability index by setting is: under setting [1], 4.77 ± 0.27; under setting [2], 4.57 ± 0.18.

KFKESFAEMNRGSNEWKTVVGGAM [COX4I1]: the protein stability index was 3 ± 0.13 under setting [1] and 3.2 ± 0.29 under setting [2].

Regarding KFPPEEELQREWLGNREALIQFLE [CPN1], the protein stability index reads like this: under setting [1], 3.69 ± 0.18; under setting [2], 3.8 ± 0.18.

Regarding KGEFKDEEETVTTKHIHITQATET [CLINT1], the protein stability index is, setting by setting: under setting [1], 5.42 ± 0.059; under setting [2], 5.4 ± 0.097.

As to KGHERTVQYLQHLGTENLHLIFSY [VPS39], the protein stability index was determined as 2.39 ± 0.46 under setting [1] and 2.59 ± 0.67 under setting [2].

Turning to KHGSLNRYHNSHPLRERARKLSQG [YJU2B], the protein stability index turned out to be 3.73 ± 0.19 under setting [1] and 3.84 ± 0.12 under setting [2].

Turning to KHLTARVLCLIVLPLALYTATFAV [POMT2], the protein stability index by setting is: under setting [1], 3.38 ± 0.42; under setting [2], 3.15 ± 0.58.

Turning to KIDDLMQEITEQQDIAQEISEAFS [CHMP4C], the protein stability index came out at 4.75 ± 0.35 under setting [1] and 4.67 ± 0.28 under setting [2].

Regarding KIGFEIGIENEEDTSKQKKMETMY [ZNF449], the protein stability index reads like this: under setting [1], 4.08 ± 0.29; under setting [2], 4.07 ± 0.22.
